Source: doi:10.1101/2019.12.17.878660 (bioRxiv, 2019)

Target: T1, SurA (E. coli, UniProt P0ABZ6 21-428)
T1 sequence: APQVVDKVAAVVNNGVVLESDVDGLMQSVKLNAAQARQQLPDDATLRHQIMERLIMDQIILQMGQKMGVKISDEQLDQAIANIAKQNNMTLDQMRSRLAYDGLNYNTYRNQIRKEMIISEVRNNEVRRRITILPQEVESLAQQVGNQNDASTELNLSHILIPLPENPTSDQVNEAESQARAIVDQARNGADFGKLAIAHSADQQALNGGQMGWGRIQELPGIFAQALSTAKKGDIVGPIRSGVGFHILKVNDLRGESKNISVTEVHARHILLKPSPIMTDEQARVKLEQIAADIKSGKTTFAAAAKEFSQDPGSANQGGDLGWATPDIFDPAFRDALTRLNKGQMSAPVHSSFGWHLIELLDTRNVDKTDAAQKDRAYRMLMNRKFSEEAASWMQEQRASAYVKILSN
Assay: cross-linking

binding result: binds
B1: uOmpX (natural protein, E. coli, UniProt P0A917 24-171, looked up)
chain: ATSTVTGGYAQSDAQGQMNKMGGFNLKYRYEEDNSPLGVIGSFTYTEKSRTASSGDYNKNQYYGITAGPAYRINDWASIYGVVGVGYGKFQTTEYPTYKHDTSDYGFSYGAGLQFNPMENVALDFSYEQSRIRSVDVGTWIAGVGYRF
